# Patent publication US20200216532A1
# Numbering of substitutions follows the chain as printed. In names and notes the source's numbering stands.
# B1: SEQ ID NO: 23, Wildtype VHH (VHH)
# VHH: EVQLVESGGGLVQAGGSLRLSCAASGRTFNNYAMGWFRRAPGKEREFVAAITRSGVRSGVSAIYGDSVKDRFTISRDNAKNTLYLQMNSLKPEDTAVYTCAASAIGSGALRRFEYDYSGQGTQVTVSS
# B2: SEQ ID NO: 24, Wildtype VHH + A14P (VHH)
# VHH: B1 VHH with A14P
# B3: SEQ ID NO: 28, Wildtype VHH + A14P + R39Q + K83R + T91Y + Q108L (VHH)
# VHH: B1 VHH with A14P, R39Q, K91R, T99Y, Q123L
# B4: SEQ ID NO: 27, Wildtype VHH + A14P + K83R + Q108L (VHH)
# VHH: B1 VHH with A14P, K91R, Q123L
# B5: SEQ ID NO: 30, Wildtype VHH + A14P + R39Q + K83R + T91Y + Q108L + 3 A's at C-terminus (A114 + A115 + A116) (VHH)
# VHH: B1 VHH with A14P, R39Q, K91R, T99Y, Q123L
# B6: SEQ ID NO: 29, Wildtype VHH + A14P + R39Q + K83R + T91Y + Q108L + 1 additional A at C-terminus (A114) (VHH)
# VHH: B1 VHH with A14P, R39Q, K91R, T99Y, Q123L
# B7: SEQ ID NO: 25, Wildtype VHH + K83R (VHH)
# VHH: B1 VHH with K91R
# B8: SEQ ID NO: 26, Wildtype VHH + Q108L (VHH)
# VHH: B1 VHH with Q123L
# B9: NB 3.12 (VHH)
# VHH: EVQLVESGGGLVQAGGSLRLSCAASRSIGRLDRMGWYRHRPGEPRELVATITGGSSINYGDSVKGRFTISIDNSKNTVYLQMNSLRPEDTAVYYCNFNKYVTSRDTWGQGTQVTVSS
# B10: NB 3.13 (VHH)
# VHH: B9 VHH with A14P
# B11: NB 3.14 (VHH)
# VHH: B9 VHH with A14P, Q112L, T114Q
# B12: NB 3.15 (VHH)
# VHH: B9 VHH with L11S, A14P, Q112L
# B13: NB 3.11 (VHH)
# VHH: B9 VHH with A14P, R86K, Q112L
# B14: NB 3.10 (VHH)
# VHH: B9 VHH with Q112L
# Columns and labels:
# [1] = biological target: antibodies against ISV in serum sample IHUS#B09032311A3; assay: ECL drug-displacement assay vs labelled SEQ ID NO:1
# [2] = biological target: antibodies against ISV in serum sample IHUS#B09032311A1; assay: as above
# [3] = biological target: antibodies against ISV in serum sample IHUS#B09032311A20; assay: as above
# [4] = biological target: affinity purified antibody IHuP#002-001-ABL-08; assay: bridging/competition ADA assay, 10 ug/ml ISV vs labelled ISV
# [5] = biological target: analytical polyclonal antibody generated in Example 2; assay: SPR Biacore T100, polyclonal immobilized, 500 nM ISV
Binder,% reduction [1] [%],ECLU confirmatory assay [1] [ECLU],% reduction [2] [%],ECLU confirmatory assay [2] [ECLU],% reduction [3] [%],ECLU confirmatory assay [3] [ECLU],% reduction [4] [%],ECLU confirmatory assay [4] [ECLU],Binding (RU) at end of injection [5] [RU]
B1,20,1780,4,60,53,8680,7.3,2710,
B2,91,205,10,56,96,668,90.8,268,
B3,90,,,,,,91.4,251,
B4,,,,,,,89.1,319,
B5,13,,,,,,-13.1,3300,
B6,18,,,,,,58.6,1210,
B7,37,1400,1,62,63,6910,15.7,2460,
B8,31,1530,5,59,62,6990,13.2,2530,
B9,,,,,,,,,86
B10,,,,,,,,,90
B11,,,,,,,,,79
B12,,,,,,,,,22
B13,,,,,,,,,88
B14,,,,,,,,,91
